In patent US4770993A, “Hybridoma tumor cell lines and their monoclonal antibodies to thaumatin” (Beatrice Companies, Inc., priority 1985, dated 1988):
Positions count from the first letter of the chain named.

Legend:
[1] = tested on: monoclonal antibody of clone No. 29; assay: Competition assay between native plant thaumatin I and monellin, clone No. 29 antibody; type: binding, mouse
[2] = tested on: clone No. 3 monoclonal antibodies; assay: Competition ELISA, inhibition of binding of clone No. 3 monoclonal antibodies to native plant thaumatin I; parameters: species or system mouse
Method: (§1) The following procedure is utilized to carry out enzyme linked immunosorbance assays (ELISA) for thaumatin. All reactions are carried out at room temperature and the ELISA plate is covered with Saran brand plastic wrap at all stages and is incubated within a humidified chamber. ELISA plates are coated by placing 10 ng of thaumatin I purified according to the procedure of example 1 in 50 μl of 25 mM NaHCO3 (pH 9.2). This is incubated at room temperature for 2 hours. The plates are washed twice with 400 μl of PBS (50 mM potassium phosphate, 150 mM NaCl, (pH 7.4) and Tween 20 (0.05%)) (a detergent manufactured by Sigma Chemical Co.) and then twice with 400 μl water. The plates are then coated with 200 μl of 1% bovine serum albumin (BSA) in PBS-Tween 20 (0.025% solution) for 2 hours at room temperature. The plates are again washed twice with 400 μl of the PBS-Tween solution and twice with water.
(§2) Fifty μl of media from the culture to be tested is then added. Normal, unfused myeloma cell (Sp2-0/Ag-14) media is used as the negative control. Mouse serum at a dilution of 1:500 or greater is used as a positive control. The media is then incubated for at least four hours at room temperature. The plates are then again washed twice with 400 μl of PBS-Tween 20 solution and then twice with water. Fifty μl of a 1:100 dilution of rabbit anti-mouse light K and λ chain immunoglobulin is added and this is incubated for 2 hours at room temperature. The plates are again washed twice with 400 μl of 0.5% PBS-Tween 20 solution and twice with water. Fifty μl of conjugated goat anti-rabbit IgG peroxidase at a 1:1000 dilution is then added and incubated for 1 hour at room temperature. The plates are once more washed twice with 400 μl PBS-Tween 20 solution and twice with water.
(§3) Fifty μl of O-phenylenediamine dihydrochloride (OPD) solution containing 0.01% of H2 O2 is added to each well (OPD solution comprises 18 mg of OPD per 30 ml of staining buffer which itself comprises 4.86 ml of 0.5 M citric acid and 10.28 ml of 0.5 M Na2 HPO4 diluted up to 100 ml with water). The H2 O2 should be added to the OPD only seconds before application. This mixture is then incubated for 5-15 minutes at room temperature until the reaction is stopped by addition of 50 μl of 4N H2 SO4. The optical density of the wells is then measured at 490 nm by a Bio-Tek ELISA reader.
In this example, the inhibition effect of recombinant yeast produced thaumatin analogue-glutathione adduct and of performic acid oxidized plant thaumatin on binding of clone No. 3 monoclonal antibodies to native plant thaumatin I was evaluated. ELISA plates were coated with 10 ng of native plant thaumatin I per well. The antibodies were preincubated with control buffer or with various amounts of test materials for 2 hours and were added to the plates. The plates were then developed according to the ELISA procedure of Example 3.

[3] = tested on: clone No. 29 monoclonal antibodies; assay: Competition ELISA, inhibition of binding of clone No. 29 monoclonal antibodies to native plant thaumatin I; parameters: species or system mouse
Method: as §1
as §2, with “Mouse serum at a dilution of 1:500 or greater is used as a positive control.” left out
as §3
In this example inhibition effect of recombinant yeast produced thaumatin analogue-glutathione adduct and of performic acid oxidized thaumatin on binding of clone No. 29 monoclonal antibodies to native plant thaumatin I was evaluated. ELISA plates were coated with 10 ng of native plant thaumatin I per well. The antibodies were preincubated with control buffer or with various amounts of test materials for 2 hours and were added to the plates. The plates were then developed according to the ELISA procedure of Example 3.

[4] = cited from earlier work; for taste responses: in words
[5] = in words; cited from earlier work

Monellin
Inhibition (%) ([1]; amount of protein 10 ng): not detectable | Inhibition (%) ([1]; amount of protein 50 ng): not detectable | Inhibition (%) ([1]; amount of protein 100 ng): not detectable | Inhibition (%) ([1]; amount of protein 1 μg): 15% | Inhibition (%) ([1]; amount of protein 10 μg): 60% | Inhibition (%) ([1]; amount of protein 100 μg): 98% | concentration inhibiting binding relative to thaumatin ([1]; monellin versus thaumatin): ten fold greater

B1: Thaumatin I: plant thaumatin I (obtained from Sigma Chemical Co.), sweet-tasting protein of Thaumatococcus daniellii, purified on an ion exchange column (protein, UniProt P02883 23-229, looked up)
Thaumatin I: ATFEIVNRCSYTVWAAASKGDAALDAGGRQLNSGESWTINVEPGTNGGKIWARTDCYFDDSGSGICKTGDCGGLLRCKRFGRPPTTLAEFSLNQYGKDYIDISNIKGFNVPMDFSPTTRGCRGVRCAADIVGQCPAKLKAPGGGCNDACTVFQTSEYCCTTGKCGPTEYSRFFKRLCPDAFSYVLDKPTTVTCPGSSNYRVTFCPTA
Inhibition of Binding (%) ([2]; addition 100 ng): 16% | Inhibition of Binding (%) ([2]; addition 200 ng): 30% | Inhibition of Binding (%) ([2]; addition 500 ng): 50% | Inhibition of Binding (%) ([2]; addition 1 μg): 60% | Inhibition of Binding (%) ([2]; addition 2 μg): 80% | Inhibition of Binding (%) ([3]; addition 100 ng): 5% | Inhibition of Binding (%) ([3]; addition 200 ng): 30% | Inhibition of Binding (%) ([3]; addition 500 ng): 51% | Inhibition of Binding (%) ([3]; addition 1 μg): 65% | Inhibition of Binding (%) ([3]; addition 2 μg): 80% | Inhibition (%) ([1]; amount of protein 10 ng): not detectable | Inhibition (%) ([1]; amount of protein 50 ng): not detectable | Inhibition (%) ([1]; amount of protein 100 ng): 25% | Inhibition (%) ([1]; amount of protein 1 μg): 62.5% | Inhibition (%) ([1]; amount of protein 10 μg): 94% | Inhibition (%) ([1]; amount of protein 100 μg): 95% | taste responses [4]: elicit profound taste responses | sweetness relative to sucrose ([4]; on a weight basis): about 5000 times sweeter than sucrose | cariogenicity [5]: non-cariogenic | toxicity [5]: non-toxic

B2: Thaumatin II: plant thaumatin II, sweet-tasting protein of Thaumatococcus daniellii (protein, UniProt P02884 23-229, looked up)
Thaumatin II: B1 Thaumatin I with N46K, S63R, K67R, R76Q
taste responses [4]: elicit profound taste responses | cariogenicity [5]: non-cariogenic | toxicity [5]: non-toxic

B3: Performic acid oxidized thaumatin: denatured thaumatin I prepared by incubation of thaumatin I in a chilled performic acid solution (protein, UniProt P02883 23-229, looked up)
Thaumatin I: B1 Thaumatin I
modifications: performic acid oxidized
notes: denatured thaumatin I prepared by incubation of thaumatin I in a chilled performic acid solution
Inhibition of Binding (%) ([2]; addition 100 ng): 0% | Inhibition of Binding (%) ([2]; addition 200 ng): 0% | Inhibition of Binding (%) ([2]; addition 500 ng): 0% | Inhibition of Binding (%) ([2]; addition 1 μg): 0% | Inhibition of Binding (%) ([2]; addition 2 μg): 6% | inhibition in the assay ([2]; preincubation with clone No. 3 antibody, in words): little or no inhibition | Inhibition of Binding (%) ([3]; addition 100 ng): 8% | Inhibition of Binding (%) ([3]; addition 200 ng): 29.5% | Inhibition of Binding (%) ([3]; addition 500 ng): 49% | Inhibition of Binding (%) ([3]; addition 1 μg): 64% | Inhibition of Binding (%) ([3]; addition 2 μg): 82% | competition with native plant thaumatin I for clone No. 29 antibody ([3]; in words): compete effectively
